Measured values reported in patent US10106589B2, “Compositions and methods for immunomodulation” (FUNDACIO INSTITUT D'INVESTIGACIO BIOMEDICA DE BELLVITGE …, priority 2011, dated 2018).

Test system: immature Mo-DCs
Assay: Endocytic activity (DQ-OVA uptake)
Assay type: cell-based, human
Design: key: (−) negligible; (+) low; (++) moderate; (+++) high
Conditions: functional assay
Description: To measure the phagocytic activity of iDCs, 2×10^5 cells/ml were resuspended in 100 μl of PBS and incubated with 4 μl of BODIPY FL-conjugated DQ-Ovalbumin (1 mg/ml, DQ-OVA, Molecular Probes, Leiden, Netherlands) at 37° C. or at 0° C. for 15 min. The incubations were stopped by adding 1 ml of cold FACS buffer. The cells were washed two times with cold FACS buffer and their fluorescence analyzed using a FACScalibur flow cytometer (Becton-Dickinson).

B1: C4BP (β^−): C4BP isoforms lacking beta chain: C4BP (α7β0) or C4BP (α6β0) (protein, UniProt P04003 49-597, looked up)
C4b-binding protein alpha …: NCGPPPTLSFAAPMDITLTETRFKTGTTLKYTCLPGYVRSHSTQTLTCNSDGEWVYNTFCIYKRCRHPGELRNGQVEIKTDLSFGSQIEFSCSEGFFLIGSTTSRCEVQDRGVGWSHPLPQCEIVKCKPPPDIRNGRHSGEENFYAYGFSVTYSCDPRFSLLGHASISCTVENETIGVWRPSPPTCEKITCRKPDVSHGEMVSGFGPIYNYKDTIVFKCQKGFVLRGSSVIHCDADSKWNPSPPACEPNSCINLPDIPHASWETYPRPTKEDVYVVGTVLRYRCHPGYKPTTDEPTTVICQKNLRWTPYQGCEALCCPEPKLNNGEITQHRKSRPANHCVYFYGDEISFSCHETSRFSAICQGDGTWSPRTPSCGDICNFPPKIAHGHYKQSSSYSFFKEEIIYECDKGYILVGQAKLSCSYSHWSAPAPQCKALCRKPELVNGRLSVDKDQYVEPENVTIQCDSGYGVVGPQSITCSGNRTWYPEVPKCEWETPEGCEQVLTGKRLMQCLPNPEDVKMALEVYKLSLEIEQLELQRDSARQSTLDKEL
Endocytosis (DQ-OVA): +
